The labels stand for the following.
B1: FEM1B (parent)
chain: TLAALLLNRSESDIRYLLGYVSQQ
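Note: lentivirally expressed fusions sorted by FACS into six bins by GFP to DsRed ratio, PSI derived from sequencing read proportions per bin multiplied by bin number.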

This series covers variants of B1. Nature of the series: protein stability index of a GFP-peptide fusion (GPS, HEK-293T) (PSI 1-6); higher = more stable. The note with it: c terminus: a fixed tail appended.
For TLAALLLNQSESDIRYLLGYVSQQ [R9Q], the protein stability index stood at 1.96.

Turning to TLAALLLNKSESDIRYLLGYVSQQ [R9K], the protein stability index was 1.96.

For the variant TLAALLLNPSESDIRYLLGYVSQQ [R9P], the protein stability index came out at 1.92.

Consider TLAALLLNNSESDIRYLLGYVSQQ [R9N], for which the protein stability index came out at 2.57.

As for TLAALLLNSSESDIRYLLGYVSQQ [R9S], the protein stability index was 2.7.

TLAALLLNYSESDIRYLLGYVSQQ [R9Y]: the protein stability index stood at 2.52.

As for TLAALLLNISESDIRYLLGYVSQQ [R9I], the protein stability index stood at 3.29.

For the variant THAALLLNRSESDIRYLLGYVSQQ [L2H], the protein stability index came out at 1.43.

Take TEAALLLNRSESDIRYLLGYVSQQ [L2E]: the protein stability index turned out to be 2.01.

With TDAALLLNRSESDIRYLLGYVSQQ [L2D], the protein stability index amounted to 2.1.

Turning to TSAALLLNRSESDIRYLLGYVSQQ [L2S], the protein stability index came to 1.57.

In the case of TYAALLLNRSESDIRYLLGYVSQQ [L2Y], the protein stability index was 2.2.

On to TRAALLLNRSESDIRYLLGYVSQQ [L2R], for which the protein stability index is 1.84.

Consider TKAALLLNRSESDIRYLLGYVSQQ [L2K], for which the protein stability index was found to be 1.64.

Consider TPAALLLNRSESDIRYLLGYVSQQ [L2P], for which the protein stability index was found to be 1.93.

On to TWAALLLNRSESDIRYLLGYVSQQ [L2W], for which the protein stability index came to 2.87.

Turning to TCAALLLNRSESDIRYLLGYVSQQ [L2C], the protein stability index is 3.06.

In the case of TMAALLLNRSESDIRYLLGYVSQQ [L2M], the protein stability index was 2.24.

Turning to TTAALLLNRSESDIRYLLGYVSQQ [L2T], the protein stability index worked out at 1.77.

In the case of TGAALLLNRSESDIRYLLGYVSQQ [L2G], the protein stability index was 2.11.

Take TNAALLLNRSESDIRYLLGYVSQQ [L2N]: the protein stability index was 1.89.

With TQAALLLNRSESDIRYLLGYVSQQ [L2Q], the protein stability index amounted to 2.44.

Consider TVAALLLNRSESDIRYLLGYVSQQ [L2V], for which the protein stability index worked out at 2.68.

Turning to TAAALLLNRSESDIRYLLGYVSQQ [L2A], the protein stability index amounted to 1.7.

Regarding TFAALLLNRSESDIRYLLGYVSQQ [L2F], the protein stability index was 2.56.

On to TLAALSLNRSESDIRYLLGYVSQQ [L6S], for which the protein stability index amounted to 1.82.

As for TLAALILNRSESDIRYLLGYVSQQ [L6I], the protein stability index is 2.88.

Take TLAALVLNRSESDIRYLLGYVSQQ [L6V]: the protein stability index stood at 2.22.

Turning to TLAALTLNRSESDIRYLLGYVSQQ [L6T], the protein stability index came to 1.76.

For the variant TLAALNLNRSESDIRYLLGYVSQQ [L6N], the protein stability index was 1.8.

On to TLAALGLNRSESDIRYLLGYVSQQ [L6G], for which the protein stability index turned out to be 1.97.

Take TLAALCLNRSESDIRYLLGYVSQQ [L6C]: the protein stability index came to 1.21.

As for TLAALHLNRSESDIRYLLGYVSQQ [L6H], the protein stability index was 1.85.

Regarding TLAALQLNRSESDIRYLLGYVSQQ [L6Q], the protein stability index amounted to 1.38.

TLAALKLNRSESDIRYLLGYVSQQ [L6K]: the protein stability index worked out at 2.37.

Take TLAALRLNRSESDIRYLLGYVSQQ [L6R]: the protein stability index amounted to 1.76.

Turning to TLAALDLNRSESDIRYLLGYVSQQ [L6D], the protein stability index is 2.5.

With TLAALFLNRSESDIRYLLGYVSQQ [L6F], the protein stability index came to 2.65.

For TLAALELNRSESDIRYLLGYVSQQ [L6E], the protein stability index stood at 1.7.

Consider TLAALPLNRSESDIRYLLGYVSQQ [L6P], for which the protein stability index amounted to 2.21.

TLAALMLNRSESDIRYLLGYVSQQ [L6M]: the protein stability index came to 2.56.

TLAALALNRSESDIRYLLGYVSQQ [L6A]: the protein stability index stood at 2.12.

For TLAALLLNRGESDIRYLLGYVSQQ [S10G], the protein stability index is 1.53.

With TLAALLLNRNESDIRYLLGYVSQQ [S10N], the protein stability index is 2.29.

Regarding TLAALLLNRVESDIRYLLGYVSQQ [S10V], the protein stability index came out at 1.87.

In the case of TLAALLLNRFESDIRYLLGYVSQQ [S10F], the protein stability index came to 3.1.

With TLAALLLNRLESDIRYLLGYVSQQ [S10L], the protein stability index is 3.05.

For TLAALLLNRIESDIRYLLGYVSQQ [S10I], the protein stability index came to 3.57.

Regarding TLAALLLNRHESDIRYLLGYVSQQ [S10H], the protein stability index was determined as 4.65.

For TLAALLLNRCESDIRYLLGYVSQQ [S10C], the protein stability index amounted to 2.4.

Take TLAALLLNRAESDIRYLLGYVSQQ [S10A]: the protein stability index was 3.37.

Take TLAALLLNRPESDIRYLLGYVSQQ [S10P]: the protein stability index stood at 3.81.

For the variant TLAALLLNREESDIRYLLGYVSQQ [S10E], the protein stability index was 3.2.

For the variant TLAALLLNRWESDIRYLLGYVSQQ [S10W], the protein stability index came to 3.07.

As for TLAALLLNRYESDIRYLLGYVSQQ [S10Y], the protein stability index was 2.41.

Regarding TLAALLLNRMESDIRYLLGYVSQQ [S10M], the protein stability index was 1.87.

Consider TLAALLLNRKESDIRYLLGYVSQQ [S10K], for which the protein stability index stood at 2.28.

For the variant TLAALLLNRQESDIRYLLGYVSQQ [S10Q], the protein stability index was determined as 4.48.

In the case of TLLALLLNRSESDIRYLLGYVSQQ [A3L], the protein stability index is 2.64.

In the case of TLKALLLNRSESDIRYLLGYVSQQ [A3K], the protein stability index came out at 1.18.

With TLEALLLNRSESDIRYLLGYVSQQ [A3E], the protein stability index stood at 2.92.

TLRALLLNRSESDIRYLLGYVSQQ [A3R]: the protein stability index was determined as 2.25.

For the variant TLDALLLNRSESDIRYLLGYVSQQ [A3D], the protein stability index turned out to be 2.

For the variant TLHALLLNRSESDIRYLLGYVSQQ [A3H], the protein stability index was 2.12.

TLNALLLNRSESDIRYLLGYVSQQ [A3N]: the protein stability index came to 1.7.

Consider TLGALLLNRSESDIRYLLGYVSQQ [A3G], for which the protein stability index is 2.15.

Regarding TLQALLLNRSESDIRYLLGYVSQQ [A3Q], the protein stability index is 2.31.

With TLTALLLNRSESDIRYLLGYVSQQ [A3T], the protein stability index is 2.18.

As to TLPALLLNRSESDIRYLLGYVSQQ [A3P], the protein stability index was 2.08.

TLFALLLNRSESDIRYLLGYVSQQ [A3F]: the protein stability index was determined as 3.58.

TLVALLLNRSESDIRYLLGYVSQQ [A3V]: the protein stability index was determined as 3.73.

As to TLMALLLNRSESDIRYLLGYVSQQ [A3M], the protein stability index worked out at 2.35.

As to TLIALLLNRSESDIRYLLGYVSQQ [A3I], the protein stability index stood at 2.65.

Turning to TLWALLLNRSESDIRYLLGYVSQQ [A3W], the protein stability index came to 2.38.

Regarding TLCALLLNRSESDIRYLLGYVSQQ [A3C], the protein stability index worked out at 2.17.

For the variant TLAAYLLNRSESDIRYLLGYVSQQ [L5Y], the protein stability index came to 3.74.

As to TLAAALLNRSESDIRYLLGYVSQQ [L5A], the protein stability index is 2.03.

In the case of TLAAELLNRSESDIRYLLGYVSQQ [L5E], the protein stability index is 2.14.

In the case of TLAAGLLNRSESDIRYLLGYVSQQ [L5G], the protein stability index is 1.12.

With TLAAKLLNRSESDIRYLLGYVSQQ [L5K], the protein stability index worked out at 1.44.

As for TLAAPLLNRSESDIRYLLGYVSQQ [L5P], the protein stability index was determined as 1.79.

Turning to TLAAWLLNRSESDIRYLLGYVSQQ [L5W], the protein stability index is 2.25.

Regarding TLAATLLNRSESDIRYLLGYVSQQ [L5T], the protein stability index was 2.71.

Regarding TLAAHLLNRSESDIRYLLGYVSQQ [L5H], the protein stability index was 2.62.

Turning to TLAAVLLNRSESDIRYLLGYVSQQ [L5V], the protein stability index worked out at 3.12.

On to TLAASLLNRSESDIRYLLGYVSQQ [L5S], for which the protein stability index is 2.6.

As for TLAACLLNRSESDIRYLLGYVSQQ [L5C], the protein stability index came out at 2.4.

On to TLAAMLLNRSESDIRYLLGYVSQQ [L5M], for which the protein stability index came to 3.24.

With TLAANLLNRSESDIRYLLGYVSQQ [L5N], the protein stability index amounted to 1.76.

As to TLAAQLLNRSESDIRYLLGYVSQQ [L5Q], the protein stability index was found to be 3.07.

Turning to TLAARLLNRSESDIRYLLGYVSQQ [L5R], the protein stability index was found to be 3.37.

Regarding TLAAILLNRSESDIRYLLGYVSQQ [L5I], the protein stability index amounted to 3.24.

As for TLAADLLNRSESDIRYLLGYVSQQ [L5D], the protein stability index was determined as 2.45.

Consider TLAAFLLNRSESDIRYLLGYVSQQ [L5F], for which the protein stability index is 5.25.

The values are drawn from the supplement of paper PMC10567573.
